In US20150139990A1 (DAINIPPON SUMITOMO PHARMA, published 2015):

Biological target: T1, human CD81 on CD81-expressing cells (Jurkat E6.1, human PBMC, Ramos) (human, UniProt P60033 1-236)
T1 construct: endogenous CD81 of the cells; also called wild type human CD81
T1 sequence: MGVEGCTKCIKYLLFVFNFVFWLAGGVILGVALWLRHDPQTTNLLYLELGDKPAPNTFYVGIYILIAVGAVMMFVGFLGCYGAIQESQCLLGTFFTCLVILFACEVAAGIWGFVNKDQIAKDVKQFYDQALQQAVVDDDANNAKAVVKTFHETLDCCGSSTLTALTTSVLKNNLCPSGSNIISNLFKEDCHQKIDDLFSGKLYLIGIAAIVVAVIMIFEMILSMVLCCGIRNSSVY
Test: flow cytometry, Jurkat E6.1 cells
Description: Based on known information (JOURNAL OF VIROLOGY., 79, 4316-4328, 2005), Jurkat E6.1 cells and human PBMC (Peripheral Blood Mononuclear cells) were used as human CD81-expressing cells to confirm binding of the antibodies of the present invention obtained in Example 1 to the human CD81-expressing cells. Jurkat E6.1 cells were purchased from European Collection of Cell Cultures (ECACC) (Cat No. 88042803). Human PBMC were purchased from KAC Co., Ltd. (KAC). These cells were collected by centrifugation (4,000 rpm, 3 min, 4° C.) and suspended in FACS staining buffer (phosphate buffer, 0.09% sodium azide, 1% bovine serum albumin (BSA: Hyclone Laboratories)). The number of viable cells was counted using trypan blue and 10⁶ cells/100 μl were added in an eppendorf tube.
To the cells prepared in (1) above was added the anti-human CD81 antibody (002-A07 or 005-001) prepared in Example 1 or a human IgG4 (Acris) as a control (0.1 μg), and the cells were incubated for 20 min at 4° C. […] The binding ratio (%) of the anti-human CD81 antibody to the cells was analyzed by flow cytometry using FACS Calibur (BD Biosciences) and calculated as the percentage of cells having a PE-derived fluorescent intensity greater than that observed when the control IgG4 is used. […]

B1: 002-A07 IgG4 antibody (antibody)
heavy: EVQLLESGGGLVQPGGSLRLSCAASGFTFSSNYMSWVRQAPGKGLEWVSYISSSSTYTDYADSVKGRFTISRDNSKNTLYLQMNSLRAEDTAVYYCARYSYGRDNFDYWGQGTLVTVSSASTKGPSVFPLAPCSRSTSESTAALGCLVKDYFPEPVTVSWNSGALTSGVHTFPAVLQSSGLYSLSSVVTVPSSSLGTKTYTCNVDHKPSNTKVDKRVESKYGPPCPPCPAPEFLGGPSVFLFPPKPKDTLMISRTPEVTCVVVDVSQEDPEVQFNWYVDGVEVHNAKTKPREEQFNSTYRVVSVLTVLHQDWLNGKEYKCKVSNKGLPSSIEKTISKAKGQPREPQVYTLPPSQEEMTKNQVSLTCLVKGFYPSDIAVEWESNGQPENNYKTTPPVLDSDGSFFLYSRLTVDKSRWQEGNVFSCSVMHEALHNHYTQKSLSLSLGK
light: QSVLTQPPSASGTPGQRVTISCTGSTSNIGAGYDTHWYQQLPGTAPKLLIYGNSNRPSGVPDRFSGSKSGTSASLAISGLRSEDEADYYCQSYDTNLSVWVFGGGTKLTVLGQPKAAPSVTLFPPSSEELQANKATLVCLISDFYPGAVTVAWKADSSPVKAGVETTTPSKQSNNKYAASSYLSLTPEQWKSHRSYSCQVTHEGSTVEKTVAPTECS
notes: human IgG4 S228P, lambda light chain
binding ratio to cells (%): 100%
